From publication PMC6992714 come the findings set out here.

The target in the experiment is BphP1-iB(GFP) (Rhodopseudomonas palustris | not stated). Briefly: light-induced relocalisation in live cells (epifluorescence microscopy); HeLa co-expressing BphP1-iB(GFP), mVenus-CAAX and mCherry-QPAS1; darkness against 740 nm light (1 mW cm^-2), 37 °C; mCherry signal moves from cytoplasm to plasma membrane.

In turn, mCherry-QPAS1 registered a half-time of the relocalisation from cytoplasm to plasma membrane of 33.6 s.
